Consider 92 variants from IntAct's records for PubMed 29039417.

Sequences and labels used below:
B1: Protein PTHB1 (Homo sapiens), Q3SYG4 (parent)
chain: MSLFKARDWWSTILGDKEEFDQGCLCLANVDNSGNGQDKIIVGSFMGYLRIFSPHPAKTGDGAQAEDLLLEVDLRDPVLQVEVGKFVSGTEMLHLAVLHSRKLCVYSVSGTLGNVEHGNQCQMKLMYEHNLQRTACNMTYGSFGGVKGRDLICIQSMDGMLMVFEQESYAFGRFLPGFLLPGPLAYSSRTDSFLTVSSCQQVESYKYQVLAFATDADKRQETEQQKLGSGKRLVVDWTLNIGEQALDICIVSFNQSASSVFVLGERNFFCLKDNGQIRFMKKLDWSPSCFLPYCSVSEGTINTLIGNHNNMLHIYQDVTLKWATQLPHIPVAVRVGCLHDLKGVIVTLSDDGHLQCSYLGTDPSLFQAPNVQSRELNYDELDVEMKELQKIIKDVNKSQGVWPMTEREDDLNVSVVVSPNFDSVSQATDVEVGTDLVPSVTVKVTLQNRVILQKAKLSVYVQPPLELTCDQFTFEFMTPDLTRTVSFSVYLKRSYTPSELEGNAVVSYSRPTDRNPDGIPRVIQCKFRLPLKLICLPGQPSKTASHKITIDTNKSPVSLLSLFPGFASQSDDDQVNVMGFHFLGGARITVLASKTSQRYRIQSEQFEDLWLITNELILRLQEYFEKQGVKDFACSFSGSIPLQEYFELIDHHFELRINGEKLEELLSERAVQFRAIQRRLLARFKDKTPAPLQHLDTLLDGTYKQVIALADAVEENQGNLFQSFTRLKSATHLVILLIALWQKLSADQVAILEAAFLPLQEDTQELGWEETVDAAISHLLKTCLSKSSKEQALNLNSQLNIPKDTSQLKKHITLLCDRLSKGGRLCLSTDAAAPQTMVMPGGCTTIPESDLEERSVEQDSTELFTNHRHLTAETPRPEVSPLQGVSE
partner: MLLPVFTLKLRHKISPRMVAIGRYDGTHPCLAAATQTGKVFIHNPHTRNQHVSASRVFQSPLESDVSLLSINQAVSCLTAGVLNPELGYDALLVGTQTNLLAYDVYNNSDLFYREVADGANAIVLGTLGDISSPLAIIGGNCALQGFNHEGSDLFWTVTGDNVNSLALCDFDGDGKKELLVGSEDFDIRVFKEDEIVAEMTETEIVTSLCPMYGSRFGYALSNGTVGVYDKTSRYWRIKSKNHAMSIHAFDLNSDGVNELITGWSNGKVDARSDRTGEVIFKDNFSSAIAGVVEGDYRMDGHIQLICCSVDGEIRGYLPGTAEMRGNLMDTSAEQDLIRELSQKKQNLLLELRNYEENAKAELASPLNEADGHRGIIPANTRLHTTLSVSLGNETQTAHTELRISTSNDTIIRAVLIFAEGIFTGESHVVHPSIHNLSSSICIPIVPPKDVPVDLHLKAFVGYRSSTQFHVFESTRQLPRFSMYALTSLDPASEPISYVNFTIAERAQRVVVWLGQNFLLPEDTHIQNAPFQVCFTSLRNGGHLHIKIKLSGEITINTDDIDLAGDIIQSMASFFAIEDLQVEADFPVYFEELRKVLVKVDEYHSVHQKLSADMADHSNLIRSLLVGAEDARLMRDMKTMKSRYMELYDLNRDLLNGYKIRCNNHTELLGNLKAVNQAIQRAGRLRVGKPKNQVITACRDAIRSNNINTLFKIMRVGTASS

This experiment covers variants of B1. The following applies: with bbs2_human BBS2, Q9BXC9.
For the variant Q462K, the “effect of a mutation on the interaction” value is recorded as “with no effect”.

Turning to Q462Y, the “effect of a mutation on the interaction” value was “disrupting interaction strength”.

Turning to Q462E, the “effect of a mutation on the interaction” value was “with no effect”.

With Q462A, the “effect of a mutation on the interaction” value is on record as “with no effect”.

As for Q462T, the “effect of a mutation on the interaction” value is given as “disrupting interaction strength”.

Consider Y508E, for which the “effect of a mutation on the interaction” value is given as “with no effect”.

Turning to Y508K, the “effect of a mutation on the interaction” value is reported as “with no effect”.

As for Y508A, the “effect of a mutation on the interaction” value is recorded as “with no effect”.

On to R493E, for which the “effect of a mutation on the interaction” value is “with no effect”.

As for R493K, the “effect of a mutation on the interaction” value is reported as “with no effect”.

Take R493A: the “effect of a mutation on the interaction” value is “with no effect”.

For P516E, the “effect of a mutation on the interaction” value is given as “with no effect”.

Regarding P516K, the “effect of a mutation on the interaction” value is “with no effect”.

Take P516A: the “effect of a mutation on the interaction” value is “with no effect”.

T468A: the “effect of a mutation on the interaction” value was “with no effect”.

Turning to T468K, the “effect of a mutation on the interaction” value is “with no effect”.

With T468E, the “effect of a mutation on the interaction” value is listed as “with no effect”.

As for G518K, the “effect of a mutation on the interaction” value is on record as “with no effect”.

Turning to G518A, the “effect of a mutation on the interaction” value is listed as “with no effect”.

With G518E, the “effect of a mutation on the interaction” value is reported as “with no effect”.

On to S509A, for which the “effect of a mutation on the interaction” value is given as “with no effect”.

As for S509E, the “effect of a mutation on the interaction” value was “with no effect”.

On to S509K, for which the “effect of a mutation on the interaction” value is recorded as “with no effect”.

Take E466K: the “effect of a mutation on the interaction” value is reported as “with no effect”.

Consider E466A, for which the “effect of a mutation on the interaction” value is recorded as “with no effect”.

Consider P479L, for which the “effect of a mutation on the interaction” value is reported as “disrupting interaction strength”.

As for P479K, the “effect of a mutation on the interaction” value is “with no effect”.

Take P479A: the “effect of a mutation on the interaction” value was “with no effect”.

For the variant P479E, the “effect of a mutation on the interaction” value is “with no effect”.

Turning to M477A, the “effect of a mutation on the interaction” value was “with no effect”.

Regarding M477K, the “effect of a mutation on the interaction” value was “with no effect”.

For M477E, the “effect of a mutation on the interaction” value was “with no effect”.

For R483E, the “effect of a mutation on the interaction” value was “with no effect”.

Consider R483A, for which the “effect of a mutation on the interaction” value was “with no effect”.

R483K: the “effect of a mutation on the interaction” value is reported as “with no effect”.

As to P497A, the “effect of a mutation on the interaction” value is “with no effect”.

Take P497E: the “effect of a mutation on the interaction” value was “with no effect”.

Regarding P497K, the “effect of a mutation on the interaction” value is “with no effect”.

Take P463E: the “effect of a mutation on the interaction” value was “with no effect”.

Take P463K: the “effect of a mutation on the interaction” value is “with no effect”.

Regarding P463A, the “effect of a mutation on the interaction” value is on record as “with no effect”.

For the variant N515E, the “effect of a mutation on the interaction” value is “with no effect”.

As for N515A, the “effect of a mutation on the interaction” value was “with no effect”.

With N515K, the “effect of a mutation on the interaction” value is “with no effect”.

With S494A, the “effect of a mutation on the interaction” value was “with no effect”.

Take S494K: the “effect of a mutation on the interaction” value is listed as “with no effect”.

For S494E, the “effect of a mutation on the interaction” value is recorded as “with no effect”.

For F474E, the “effect of a mutation on the interaction” value was “with no effect”.

F474K: the “effect of a mutation on the interaction” value was “with no effect”.

F474A: the “effect of a mutation on the interaction” value was “with no effect”.

Take S498A: the “effect of a mutation on the interaction” value is reported as “with no effect”.

Consider S498K, for which the “effect of a mutation on the interaction” value was “with no effect”.

Turning to S498L, the “effect of a mutation on the interaction” value is “disrupting interaction strength”.

For S498E, the “effect of a mutation on the interaction” value is “with no effect”.

With P464K, the “effect of a mutation on the interaction” value is “with no effect”.

For P464E, the “effect of a mutation on the interaction” value is “with no effect”.

Take P464A: the “effect of a mutation on the interaction” value was “with no effect”.

As for V506A, the “effect of a mutation on the interaction” value was “with no effect”.

Take V506K: the “effect of a mutation on the interaction” value was “with no effect”.

For the variant V506E, the “effect of a mutation on the interaction” value is given as “with no effect”.

On to D513A, for which the “effect of a mutation on the interaction” value is listed as “with no effect”.

In the case of D513E, the “effect of a mutation on the interaction” value is recorded as “with no effect”.

In the case of D513K, the “effect of a mutation on the interaction” value is reported as “with no effect”.

Consider D480A, for which the “effect of a mutation on the interaction” value is reported as “with no effect”.

In the case of D480K, the “effect of a mutation on the interaction” value is recorded as “with no effect”.

In the case of D480E, the “effect of a mutation on the interaction” value was “with no effect”.

On to T496K, for which the “effect of a mutation on the interaction” value is on record as “with no effect”.

On to T496A, for which the “effect of a mutation on the interaction” value was “with no effect”.

Regarding T496E, the “effect of a mutation on the interaction” value is “with no effect”.

T473E: the “effect of a mutation on the interaction” value is given as “with no effect”.

On to T473K, for which the “effect of a mutation on the interaction” value is listed as “with no effect”.

Consider T473A, for which the “effect of a mutation on the interaction” value is “with no effect”.

With T512E, the “effect of a mutation on the interaction” value is listed as “with no effect”.

T512K: the “effect of a mutation on the interaction” value is recorded as “with no effect”.

For T512A, the “effect of a mutation on the interaction” value is given as “with no effect”.

Turning to V505A, the “effect of a mutation on the interaction” value is reported as “with no effect”.

With V505K, the “effect of a mutation on the interaction” value was “with no effect”.

V505E: the “effect of a mutation on the interaction” value is recorded as “with no effect”.

V489A: the “effect of a mutation on the interaction” value is reported as “with no effect”.

With V489K, the “effect of a mutation on the interaction” value is recorded as “with no effect”.

As for V489E, the “effect of a mutation on the interaction” value is reported as “with no effect”.

On to D517A, for which the “effect of a mutation on the interaction” value is recorded as “with no effect”.

Take D517K: the “effect of a mutation on the interaction” value is given as “with no effect”.

Turning to D517E, the “effect of a mutation on the interaction” value is listed as “with no effect”.

On to V461E, for which the “effect of a mutation on the interaction” value is on record as “with no effect”.

As for V461K, the “effect of a mutation on the interaction” value was “with no effect”.

On to V461A, for which the “effect of a mutation on the interaction” value was “with no effect”.

Turning to S507A, the “effect of a mutation on the interaction” value was “with no effect”.

Take S507K: the “effect of a mutation on the interaction” value is “with no effect”.

As to S507E, the “effect of a mutation on the interaction” value was “with no effect”.

In the case of G502K, the “effect of a mutation on the interaction” value is reported as “with no effect”.

Regarding G502E, the “effect of a mutation on the interaction” value is “with no effect”.
